# Measured values taken from patent US20230272020A1 (MEDICAL RESEARCH AND DEVELOPMENT FUND FOR HEALTH SERVICES …, published 2023).
# B1: Sema3A-AP (WT-Sema3A in frame with alkaline phosphatase) (ligand)
# chain: NYQNGKNNVPRLKLSYKEMLESNNVITFNGLANSSSYHTFLLDEERSRLYVGAKDHIFSFDLVNIKDFQKIVWPVSYTRRDECKWAGKDILKECANFIKVLKAYNQTHLYACGTGAFHPICTYIEIGHHPEDNIFKLENSHFENGRGKSPYDPKLLTASLLIDGELYSGTAADFMGRDFAIFRTLGHHHPIRTEQHDSRWLNDPKFISAHLISESDNPEDDKVYFFFRENAIDGEHSGKATHARIGQICKNDFGGHRSLVNKWTTFLKARLICSVPGPNGIDTHFDELQDVFLMNFKDPKNPVVYGVFTTSSNIFKGSAVCMYSMSDVRRVFLGPYAHRDGPNYQWVPYQGRVPYPRPGTCPSKTFGGFDSTKDLPDDVITFARSHPAMYNPVFPMNNRPIVIKTDVNYQFTQIVVDRVDAEDGQYDVMFIGTDVGTVLKVVSIPKETWYDLEEVLLEEMTVFREPTAISAMELSTKQQQLYIGSTAGVAQLPLHRCDIYGKACAECCLARDPYCAWDGSACSRYFPTAKRRTRRQDIRNGDPLTHCSDLHHDNHHGHSPEERIIYGVENSSTFLECSPKSQRALVYWQFQRRNEERKEEIRVDDHIIRTDQGLLLRSLQQKDSGNYLCHAVEHGFIQTLLKVTLEVIDTEHLEELLHKDDDGDGSKTKEMSNSMTPSQKVWYRDFMQLINHPNLNTMDEFCEQVWKRDRKQRRQRPGHTPGNSNKWKHLQENKKGRNRRTHEFERAPRSV
# notes: Secreted by HEK293-Sema3A-AP cells and used as 50-fold concentrated conditioned medium; also called Sema3A-Alkaline Phosphatase; AP-Sema3A; not shown: alkaline phosphatase fused in frame
# B2: CD72 (full-length, untagged, on cells: BLCL-CD72 cells; CD4+ T cells) (receptor, human, UniProt P21854 1-359, looked up)
# chain: MAEAITYADLRFVKAPLKKSISSRLGQDPGADDDGEITYENVQVPAVLGVPSSLASSVLGDKAAVKSEQPTASWRAVTSPAVGRILPCRTTCLRYLLLGLLLTCLLLGVTAICLGVRYLQVSQQLQQTNRVLEVTNSSLRQQLRLKITQLGQSAEDLQGSRRELAQSQEALQVEQRAHQAAEGQLQACQADRQKTKETLQSEEQQRRALEQKLSNMENRLKPFFTCGSADTCCPSGWIMHQKSCFYISLTSKNWQESQKQCETLSSKLATFSEIYPQSHSYYFLNSLLPNGGSGNSYWTGLSSNKDWKLTDDTQRTRTYAQSSKCNKVHKTWSWWTLESESCRSSLPYICEMTAFRFPD
# notes: whole, on cells; also called CD72 receptor
# Columns and labels:
# neuropilin-1 receptor = molecular target: T1, neuropilin-1 receptor (human, UniProt O14786 22-923); test: Sema3A-AP on parental U87MG cells expressing Nrp1, alkaline phosphatase colorimetric assay
# T1 construct: whole, on cells; Endogenous receptor on human cells; also called Nrp1; nrp1
# [1] = molecular target: T2, WT-Sema3A with C-terminal His tag (human, UniProt Q14563 21-771, limits assumed); test: inferred by the filing from the phosphorylation assay in BLCL versus BLCL+CD72 cells
# T2 construct: also called wild type Sema3A; WT-Sema3A peptide; not shown: C-terminal His tag
# T2 sequence: B1 chain
# Experimental: Cells were serum starved for 16 h. At the day of the experiment, cells were activated with 5 μg/ml anti IgM for 5 min at 37° C. and then 10 μg/ml of Sema3A or elution buffer as a control were added for extra 10 min at 37° C. The experiment was terminated by a wash with ice cold PBS and lysed with phosphorylation lysis buffer (50 mM Tris-HCl pH-7.5, 150 mM NaCl, 2 mM EDTA, 2 mM EGTA, 5 mM NaF, 2 mM Na₃VO₄, 10 mM Na₄P₂O₇, 1% Triton X-100). 80 μg of proteins were subjected to SDS-PAGE and immunoblotted with an antibody directed against phosphorylated target protein, the blot was then stripped and re-probed with an antibody directed against total protein. Western blots were probed with the following antibodies: anti STAT4 (C-4) (Santa Cruz Biotechnology), anti phospho-STAT4 (Tyr693) (Santa Cruz Biotechnology), p38 MAPK Antibody (Cell Signaling Technology, Inc), Phospho-p38 MAPK (Thr180/Tyr182) Antibody (Cell Signaling Technology, Inc). Quantification of band intensity was performed using ImageQuant LAS 4000 program.
# To test whether Sema3A signal transduction is mediated by CD72, Furthermore, CD72 was expressed in primary B-lymphoblastoid cells that lack neuropilin-1. […] Next, BLCL cells and BLCL cells expressing CD72 (BLCL+CD72) were stimulated with WT-Sema3A peptide. The phosphorylation state of Stat-4 and P38 was than determined. […]
# T1 sequence (O14786 22-923): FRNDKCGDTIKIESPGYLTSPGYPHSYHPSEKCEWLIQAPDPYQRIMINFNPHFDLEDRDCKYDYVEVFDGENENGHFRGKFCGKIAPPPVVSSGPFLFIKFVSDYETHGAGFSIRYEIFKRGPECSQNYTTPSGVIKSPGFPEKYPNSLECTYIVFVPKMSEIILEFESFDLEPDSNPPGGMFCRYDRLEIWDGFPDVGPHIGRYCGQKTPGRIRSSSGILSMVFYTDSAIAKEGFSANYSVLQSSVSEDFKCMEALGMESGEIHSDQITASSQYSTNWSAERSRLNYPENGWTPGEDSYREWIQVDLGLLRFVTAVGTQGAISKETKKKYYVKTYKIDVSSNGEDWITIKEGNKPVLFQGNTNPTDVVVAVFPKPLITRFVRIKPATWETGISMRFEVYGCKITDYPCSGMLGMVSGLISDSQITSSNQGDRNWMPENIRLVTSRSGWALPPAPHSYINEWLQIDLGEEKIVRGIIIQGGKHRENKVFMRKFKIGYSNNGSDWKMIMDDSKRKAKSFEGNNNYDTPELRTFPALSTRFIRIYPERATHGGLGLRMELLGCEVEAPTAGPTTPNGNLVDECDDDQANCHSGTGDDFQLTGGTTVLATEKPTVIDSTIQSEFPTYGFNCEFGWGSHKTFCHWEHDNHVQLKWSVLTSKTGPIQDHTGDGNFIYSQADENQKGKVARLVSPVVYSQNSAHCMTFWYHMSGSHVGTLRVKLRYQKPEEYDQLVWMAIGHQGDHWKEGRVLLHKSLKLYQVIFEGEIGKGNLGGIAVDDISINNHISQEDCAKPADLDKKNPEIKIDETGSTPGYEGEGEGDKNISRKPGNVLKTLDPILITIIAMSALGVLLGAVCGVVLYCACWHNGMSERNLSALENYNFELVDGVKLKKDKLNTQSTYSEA
Binder,binding result (neuropilin-1 receptor),binding result [1]
B1,binds,
B2,,binds
